Experiment: soluble fraction after stress (log2 fold change); higher = more stays soluble; pooled small domains, quantitative proteomics
Conditions: stress: 50 degC
In short: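 After stress at 50°C, the amount of each protein still soluble was measured. This was done on pooled custom libraries of small protein domains, using high-throughput quantitative proteomics. The figure given is a base-two log fold change and stands for aggregation propensity, with higher values meaning more protein stays in solution.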

## HMYVKIAADAAMPYTIKRVVTDYSSAALDAAYDGSLPKWLTISSSTKDAGSGLYRHEIIYTVTAHPE
  soluble fraction (log2): -0.68

## HMNREEKKALTRRQIIDVATRLFRQHGIHNTDLKTIATEAGVSVVTFYKYFDSKEALIGTIAAEQ
  soluble fraction (log2): -0.281

## HMNLSDIETWLRELSLEKYALAFSEAEIDFETLPELTEDDLKEVGLPVGPRRKVWGAIQLLRTTD
  soluble fraction (log2): -1.42

## HMYKLTTQRRAILDVIIENHDKHLNPEEIYDIVKEKYPEIGIATVYRTLQLLEKLNIIYRLNFDDGYNRYE
  soluble fraction (log2): -2.3

## HMVQYVDFVKRMIEELPWWHRRMLELKYLDGLTYEEIADELQVPVGTVKGTLHRAKELFQEILKNN
  soluble fraction (log2): -2.05

## HMSYQSYDKVVGDTFFEANLKAESKFGKGNFEIISTRRVKHPIYLGFGHKELVELTIGIHDP
  soluble fraction (log2): -0.308

## HMDSERTALLSSDRTSFTAREAALLIGVSQRDIYRMIEDELLDSFTVGKMIRIRRSALEWWLS
  soluble fraction (log2): -2.92

## HMQAESLTVVRSAELKADRFLDAATLQTLQTGQVVESLRTESGWVQVRIAGQQGWVRAMNVKGA
  soluble fraction (log2): -0.459

## HMGIKDRIVYIMEKEKLSIPLFAKKIGIGPSTLLHIIRGKNAPSLQVVQAIHKAYPDIDLNWLI
  soluble fraction (log2): -1.08

## HMSSKRDQFIVLGQEILEKMFKNEGLEFSEKGLLAVMPNFEAESINDIYAKVGEGLISGWDVMKAVYPAY
  soluble fraction (log2): -0.133

## HMGITMFGQNLKKLRTSKNLSQSKLSKILGISSSTIGMYEQGRRFPDQTILTKIADFFDVSTDYLLGR
  soluble fraction (log2): -0.268

## HMHDNPLSAQEQRVLDLIAAGKTSKEIASQLFLSDGTVRNYTTSIFNKLNANNRVEAINIAQENGW
  soluble fraction (log2): 0.486

## HMKIPGIGDVYAILARVYSGPQFTWIEAGFPEDDTKAYSYLHTAIRKGSAIAILQAMRTSGALTPTIEKE
  soluble fraction (log2): -0.444

## HMTSKTLSADGGENTRLDKFLSNHLPEISRTKIQKMINDGLVYVNQNYAKASLVLDGTELISYTIPD
  soluble fraction (log2): 0.0679

## HMGTKVGAPLPGTITEVKVKVGDTVKAGDAVIILEAMKMQNNIEAEVSGTVSSVLVKEGDTVMEGDALITI
  soluble fraction (log2): 0.144

## HMRQYTPEQLETAVLVLEEVRQGRRLDRALRSHPMPDGRLIAKHVLVAAYRKLVAEGTWKEDPEFLSRIRM
  soluble fraction (log2): -0.237

## HMRRIADVVPEQLTREEAEELLETLAEQGEIHEEQALLARYILEQSLQGVAPEVEPLIRAKLLAGILMVY
  soluble fraction (log2): -1.69

## HMSPVPRIEIELTSSKEDGSWTWRAVGAREPRGSLDGALLAKPAAVGDVLRVETDQFLDGMTVTAILPPRD
  soluble fraction (log2): -0.325

## HMPGRLSRREVEVIELTARGLPAAEMAVRLGISANTIEFHRRRIMQKLGVANAAEMVRRATELGW
  soluble fraction (log2): -2.1

## HMDGLAEQLFNILREELESGDYKPGQKLMSESALAQKYGVSRLTVRAAIARLSALDYVETRNGEGSFVKKR
  soluble fraction (log2): 0.0422

## HMNKYYQQLLQADPTGFIDPFKDLGTYDSRLNTFKEPVSELLNPFSGRPYSKIWQKRIETMREIFISYIKS
  soluble fraction (log2): -2.86

## HMASQFSLIVTQADAGMRLDSLLAVSGAYPSRSAAVKQIEAGKVLVNGLARSKRSIVAPGDTIVYEEIP
  soluble fraction (log2): -0.584

## HMSYFIFDGVLNLGKQYELKGEESSHITKSRRLRPGDSFLIQDQEGQRFEAILKSFDRNSLIFTPHKPTA
  soluble fraction (log2): -0.0922

## HMPQKIVIQKGVVIKKRERSDAWQIYITVKGKKPIRKSANTDNVEKAKQMALTLFAEKNYKVENNLPIQ
  soluble fraction (log2): -1.18

## HMTIKLFPNPSTDFIRVSELSAKENYKIYTILGSEIKRGSVSNNETIDIRNLNSGVYLLKFDNGTTKKIVK
  soluble fraction (log2): -0.886

## HMSYFNEYEVGDTIRVVNGPLADQISTITAIDKEKGLVNISTVFFGRENNVQVSINDIEKYN
  soluble fraction (log2): 0.0466

## HMRSWRDQRVDDLLAAVSELGMTMSRAAAGDLLDQRVEYVANQMRVTPATARKYLTEETLAGMAREIVFG
  soluble fraction (log2): -0.693

## HMGQTYTITINPTPADAKVIIDGVATNSVEAIDGRTLIWSVSKPGYLTKSGNYTVTGKNETLNIVLKEDPD
  soluble fraction (log2): 0.087

## HMDSAVLQKHLVKLIELHAPIKARNLAKILADEFGKHVDRSAVNSALYSLKAERKVEVNSSYEWSLD
  soluble fraction (log2): -2.11

## HMKELFETLPDVLDAKLLASALSISKAGAYQLLNRPDFPTLQVGGWKLVTKQKLALWMEQHTN
  soluble fraction (log2): -3.21

## HMKTKTAPPDSIPPAWLKESATLRPDLNQAQIKASAEVFLDHHRAKGTTLADWRPAWRNWIRRERA
  soluble fraction (log2): 0.116

## HMSAEAYLSFVKKENLRAAVVNYENNKEWLKDVPHERLLDLAVFAKVDMGEPGMSMKFNNWLLSR
  soluble fraction (log2): -0.78

## HMGELTSILVATKQIEPGETLSSSNTQVKSWISDLIPEGAITNPESVMGRTVSSVIGVGMPVVSLHLR
  soluble fraction (log2): 0.0954

## HMEYFDDEELDRYKGRTSDSFTDDEAEEFREVMMTMHPEEVKAWNRSLILRDVAMPDQIKDDYIMLAG
  soluble fraction (log2): -0.0408

## HMESSREVSFSEFMKQIDSGRVSSVKLDGETIYVRNSDGTSYKVIQPLGTDLIGVLRKSDIDVQAIKQ
  soluble fraction (log2): -0.003

## HMVEMPEVGVKVRIEVESHNGSTNFEGIVLHPASKGHLTLKLINGYNASYLIEEIRNLEIIDSS
  soluble fraction (log2): -0.271

## HMGQAVTVPELKGLSFDEAIEKLDDAGLKYEVVDSNYVEDMKPGTVFETLPEAGSRVKPRRIVFLTINAF
  soluble fraction (log2): -0.319

## HMSEFSDRFRLLKDESGATLKELSEQLDITVPNLSYYMKGREPSYDILIKIADYFGVTTDWLIGRTDER
  soluble fraction (log2): -0.547

## HMNMPYGTVKWFNDAKGFGFIAPEDGSADVFVHFSAINSKGFRSLQEGQRVSYEVTTGPKGAQAAGVTPVT
  soluble fraction (log2): -0.331

## HMLPKTVTLIDPVSGVAKTVTWVPALTLYSARRKAGLNRVPNTATIDRGGRELTGKRGSTLQPGDVVRW
  soluble fraction (log2): -0.425

## HMGVGIAEAMKHVADEDYGDLSSEFQRIFSAVDGGSTLGDAVRAQMRATSSAGLRRTLSVLAMSVE
  soluble fraction (log2): 0.208

## HMTMEQAEFLSRQFNLLSQRLNDPSIEWQDIADLRSEYTGEDEHRDTIRKGAKLFYEYLEAGWIKN
  soluble fraction (log2): -0.581

## HMSPIPLPVERAIHKLGSDISLARRRRHISQASLAERMGASLSTVRRMEKGDVRVPIHFFARALHVFG
  soluble fraction (log2): -0.00115

## HMDKEVLYVTVNDKKVKLDGKNHIFIDIFNYIDFDIKKPNGSIVLKLNGKNAGYMDEIKDGDKIEIYWDK
  soluble fraction (log2): 0.0969

## HMNLWIDNTQVINDWTEGASERSGSIYLTAGVKPIKMQYFDSVLNAKAILRWQGPGINKSVVPSSALTPG
  soluble fraction (log2): -0.855

## HMAPEEIPLDRVVRLVEQGRVESIVVTGERLEVTLQNGTVYGSTKENGVGFMETLDRYQVPLEQRDFSYEV
  soluble fraction (log2): -0.0708

## HMSPDALSNLPIGSEIKFTLWDGTEKRLVKHPAAYQFSRPFWMNLNEYTYVPVNRIPKNYEVIRL
  soluble fraction (log2): -0.0581

## HMGAEWTEMRVWTSTSGSKVTAEASSLTNGQVTLETKSGKRITLSIRKLVEADQKFLEAHFSK
  soluble fraction (log2): -0.947

## HMAATSTGFPGVEVRGNSIRVFFMYKRDRHAHTLPLEPTRNNIKHADQLRSAALFALRNGTYNEADFFPHS
  soluble fraction (log2): -1.53

## HMDSADADLLRRIEDLLSSRRSVIREARLADMLGVPRDQVARALDLLQERGVIGLTTDSGMKRIAFRRN
  soluble fraction (log2): -0.0756

## HMGPSVGMTVGEMERDLIFRTLETVGDNRTKAADMLGISIRTLRNKLNEYREAGFEWPRKAG
  soluble fraction (log2): 0.00867

## HMPSPEVELLEDLLSKTDEAEVEAAFHENQALVNDEFKAMLGSLIQELSKTQEADPEIIARIRFIQKLT
  soluble fraction (log2): 0.16

## HMERKMKNNISDQTTYDTDKILNFNGKGYLNGLVIPNNYQIKEEGYYVFRQVALDGREQILYFTIQDLS
  soluble fraction (log2): -1.96

## HMGIVAQLPTIRVNGKTLYYYDAQSGDNIYSIAEKLGVTVEDIRANNPGVADGVKPRMRLFFPTSLAK
  soluble fraction (log2): 0.165

## HMQVIDNHWRPSRDALDILLRDGISEHFIEDAIPEFILYWRERGTQDSNWNSRFLQHIRLQWARYTNAV
  soluble fraction (log2): -0.433

## HMASPTKQLVLEALRASGQPMSSMELSAQIGVSRATAQRYLSTLASAGEVKIQLRYGTTGRPEQEFLAIE
  soluble fraction (log2): -0.868

## HMYEVDGLGIRIAQLRKKQDLTQEAFARTLGVSPQAVSKWETGIGYPDITLLPQIAKELGVSIDQLFGRN
  soluble fraction (log2): 0.065

## HMQPEKELAPLIGQRVSVRLHDGDGGYRDLLGELESPDSIRKKNGEIAFFDPAKIAALRVVV
  soluble fraction (log2): 0.0899

## HMARLEELSNGSIVEGLLSGEAVTVVSTKWYGSSSMEVFYKTNRGSTGSQILYREDEPSLTVLEKS
  soluble fraction (log2): -0.32

## HMGVLDFSAQLLKHLEMNGGQTPLGDKSPAEEIYAVFGVSKKVFKKAVGDLYRKRLIEISSNGIRMTS
  soluble fraction (log2): -0.968

## HMAKQEPTDNGYDIYKVTASVLNVRNGAGTSYAVAYQLSKEDYVEVVSIDKGWAKLKDGKYVSADWITLYK
  soluble fraction (log2): -0.54

## HMRRKDIEFTNTMLEELYRHNSKWYDAVVRAYALEIPQKQIAEEMGIRLEAFQSMLFRAKKWIKTKYEADY
  soluble fraction (log2): -2.51

## HMFAERLKELRKMRRFSQHALAERLGISQQAVGKWETGKSTPDPATLREIADIFEVSVDLLLGR
  soluble fraction (log2): -0.247

## HMDSPALAIPSSAILRDGLEHIFFRQDPSDPDQVIRVVADLGLSDGRWTVVRSGLERTDQVVLSGA
  soluble fraction (log2): 0.0102

## HMNTLPASVQPKKGRLYAVIQTKENGKSKPVWRSLGLPEGSNKSKVNKAFREVVKQFEEEYAERLAR
  soluble fraction (log2): 0.0511

## HMAMYYVIGGDGQQYGPIDEATVRGWLGEGRVSAASLSFKTGEAQWIPLRDRPELADVLATA
  soluble fraction (log2): 0.112

## HMNETSRTRALNILGLKATATQEDIKKAYRSLAKEYHPDKLVGVSEGVKKISEEKFREINEAYEYLI
  soluble fraction (log2): 0.384

## HMGTTTGKVNATGVNFRTGPSTSYSSMGKLGIDTAVTILGKSGDWYQVKVNSTGKTGYVFAKYITITSVV
  soluble fraction (log2): -0.0946

Reference: the domain aggregation screens of Martell et al. (2025)
